These results are taken from paper PMC2809015 (Biochemistry, 2009).

The chains are these.
B1: BioB containing one [2Fe-2S]2+ cluster per monomer (enzyme, E. coli, UniProt P12996 1-346, looked up)
chain: MAHRPRWTLSQVTELFEKPLLDLLFEAQQVHRQHFDPRQVQVSTLLSIKTGACPEDCKYCPQSSRYKTGLEAERLMEVEQVLESARKAKAAGSTRFCMGAAWKNPHERDMPYLEQMVQGVKAMGLEACMTLGTLSESQAQRLANAGLDYYNHNLDTSPEFYGNIITTRTYQERLDTLEKVRDAGIKVCSGGIVGLGETVKDRAGLLLQLANLPTPPESVPINMLVKVKGTPLADNDDVDAFDFIRTIAVARIMMPTSYVRLSAGREQMNEQTQAMCFMAGANSIFYGCKLLTTPNPEEDKDLQLFRKLGLNPQQTAVLAGDNEQQQRLEQALMTPDTDEYYNAAAL
B5: HscA substrate binding domain (SBD-HscA, residues 389-616) (domain or fragment, E. coli, UniProt P0A6Z1 389-616, looked up)
chain: LDVIPLSLGLETMGGLVEKVIPRNTTIPVARAQDFTTFKDGQTAMSIHVMQGERELVQDCRSLARFALRGIPALPAGGAHIRVTFQVDADGLLSVTAMEKSTGVEASIQVKPSYGLTDSEIASMIKDSMSYAEQDVKARMLAEQKVEAARVLESLHGALAADAALLSAAERQVIDDAAAHLSEVAQGDDVDAIEQAIKNVDKQTQDFAARRMDQSVRRALKGHSVDEV

Where “and” joins values, the source holds several entries; their conditions need not be identical. Equal entries are not always repeated. Where two headings read alike, the source gives them in different places. A value given as a limit tells only on which side of the number the result lay.

Series [1] has as its target T1, HscA, Hsp70-class molecular chaperone of the isc operon (E. coli, UniProt P0A6Z1 1-616).
T1 sequence (looked up): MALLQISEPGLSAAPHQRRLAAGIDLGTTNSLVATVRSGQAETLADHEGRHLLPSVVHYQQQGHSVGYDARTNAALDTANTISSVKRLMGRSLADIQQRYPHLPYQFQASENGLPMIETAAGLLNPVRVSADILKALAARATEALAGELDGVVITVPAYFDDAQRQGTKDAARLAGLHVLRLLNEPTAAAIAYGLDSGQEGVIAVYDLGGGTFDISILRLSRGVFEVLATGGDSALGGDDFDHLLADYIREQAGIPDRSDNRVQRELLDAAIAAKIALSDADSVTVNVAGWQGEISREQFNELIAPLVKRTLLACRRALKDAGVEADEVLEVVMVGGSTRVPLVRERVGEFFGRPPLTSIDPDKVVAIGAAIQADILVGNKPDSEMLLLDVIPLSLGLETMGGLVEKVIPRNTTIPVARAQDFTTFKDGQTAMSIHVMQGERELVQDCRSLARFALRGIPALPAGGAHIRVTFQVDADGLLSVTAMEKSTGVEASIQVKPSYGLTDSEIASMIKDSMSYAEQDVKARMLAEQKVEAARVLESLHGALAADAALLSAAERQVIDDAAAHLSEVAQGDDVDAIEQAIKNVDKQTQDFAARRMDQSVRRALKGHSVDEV
Description: AUC.

Series [2] has as its target T1, HscA, Hsp70-class molecular chaperone …. Nature of the series: molecular weight filtration assay.
For series [3] the target is unchanged. Description: molecular weight filtration assay. This is another data set of the same source.
Series [4] has as its target B5. Description: molecular weight filtration assay.
Series [5] deals with the molecule itself. Nature of the series: AUC.
Series [6] concerns the target T1, HscA, Hsp70-class molecular chaperone …. Nature of the series: molecular weight filtration assay. This is another data set of the same source.
Series [7] concerns the molecule itself. Description: AUC. This is another data set of the same source.
In series [8] the target is T1, HscA, Hsp70-class molecular chaperone …. Nature of the series: molecular weight filtration assay. This is another data set of the same source.
Series [9] addresses B1. Nature of the series: molecular weight filtration assay.

As usually defined, the Kd is the free concentration of one partner at which half of the binding sites on the other are occupied at equilibrium, for simple one-to-one binding. Low values mean a tighter complex, high ones a looser complex. Broadly, the stoichiometry N is the number of molecules, sites or subunits per partner or assembly.

As to B1, the Kd in series [1] was 12 µM; in [2] it was ~5 µM; in [6], 5.5 µM and 5.6 µM. Besides, the “stoichiometry N” value in series [1] is 1 HscA per BioB dimer and 2 HscA per BioB dimer; in series [3] it was ~1 HscA per BioB dimer; in [4], 1; in “AUC [5]”, 2.

B2: BioB apoprotein (His6-biotin synthase lacking both iron-sulfur clusters) (enzyme, E. coli, UniProt P12996 1-346, looked up)
chain: MAHRPRWTLSQVTELFEKPLLDLLFEAQQVHRQHFDPRQVQVSTLLSIKTGACPEDCKYCPQSSRYKTGLEAERLMEVEQVLESARKAKAAGSTRFCMGAAWKNPHERDMPYLEQMVQGVKAMGLEACMTLGTLSESQAQRLANAGLDYYNHNLDTSPEFYGNIITTRTYQERLDTLEKVRDAGIKVCSGGIVGLGETVKDRAGLLLQLANLPTPPESVPINMLVKVKGTPLADNDDVDAFDFIRTIAVARIMMPTSYVRLSAGREQMNEQTQAMCFMAGANSIFYGCKLLTTPNPEEDKDLQLFRKLGLNPQQTAVLAGDNEQQQRLEQALMTPDTDEYYNAAAL
As to B2, the “stoichiometry N” value came out at 0.96 apoBioB dimer per HscA in [3] and 2 in the series “AUC [7]”.

B3: BioB containing both [2Fe-2S]2+ and [4Fe-4S]2+ clusters (enzyme, E. coli, UniProt P12996 1-346, looked up)
chain: MAHRPRWTLSQVTELFEKPLLDLLFEAQQVHRQHFDPRQVQVSTLLSIKTGACPEDCKYCPQSSRYKTGLEAERLMEVEQVLESARKAKAAGSTRFCMGAAWKNPHERDMPYLEQMVQGVKAMGLEACMTLGTLSESQAQRLANAGLDYYNHNLDTSPEFYGNIITTRTYQERLDTLEKVRDAGIKVCSGGIVGLGETVKDRAGLLLQLANLPTPPESVPINMLVKVKGTPLADNDDVDAFDFIRTIAVARIMMPTSYVRLSAGREQMNEQTQAMCFMAGANSIFYGCKLLTTPNPEEDKDLQLFRKLGLNPQQTAVLAGDNEQQQRLEQALMTPDTDEYYNAAAL
Turning to B3, in series [3], the “stoichiometry N” value was ~1 HscA per BioB dimer.

B4: dethiobiotin synthase (BioD) (enzyme)
chain: SKRYFVTGTDTEVGKTVASCALLQAAKAAGYRTAGYKPVASGSEKTPEGLRNSDALALQRNSSLQLDYATVNPYTFAEPTSPHIISAQEGRPIESLVMSAGLRALEQQADWVLVEGAGGWFTPLSDTFTFADWVTQEQLPVILVVGVKLGCINHAMLTAQVIQHAGLTLAGWVANDVTPPGKRHAEYMTTLTRMIPAPLLGEIPWLAENPENAATGKYINLALL
Take B4: in series [8], the Kd is ≥ 1100 µM.
On to B5, for which the Kd in series [9] was found to be 0.55 ± 0.3 µM.
